From article PMC5173487 (Nature immunology, 2016)

T1: His-tagged EPRS (amino acids 1–196) (human (by GenBank NM_004446.2), UniProt P07814 1-196)
T1 sequence (looked up): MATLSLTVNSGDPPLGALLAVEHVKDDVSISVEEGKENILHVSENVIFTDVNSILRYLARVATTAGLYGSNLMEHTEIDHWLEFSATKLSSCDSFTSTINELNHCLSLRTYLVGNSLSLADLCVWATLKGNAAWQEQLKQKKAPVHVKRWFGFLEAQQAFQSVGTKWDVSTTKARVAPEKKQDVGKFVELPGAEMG


Assays:
[1] = target: T1, His-tagged EPRS (amino acids 1–196); experiment: pull-down
[2] = target: GST-fused MAVS (amino acids 460–540) (UniProt Q7Z434 460-540); experiment: pull-down
Sequence of GST-fused MAVS (amino acids 460–540) (Q7Z434 460-540): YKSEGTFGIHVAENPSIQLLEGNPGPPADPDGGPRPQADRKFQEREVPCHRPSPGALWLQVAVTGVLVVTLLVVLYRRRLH

binding result [1]	binding result [2]	Binder
binds		GST-fused PCBP2 (amino acids 11–82) (domain or fragment, UniProt Q15366 11-82, looked up) NVTLTIRLLMHGKEVGSIIGKKGESVKKMREESGARINISEGNCPERIITLAGPTNAIFKAFAMIIDKLEED
	binds	His-tagged PCBP2 (amino acids 11–82) (domain or fragment, UniProt Q15366 11-82, looked up) NVTLTIRLLMHGKEVGSIIGKKGESVKKMREESGARINISEGNCPERIITLAGPTNAIFKAFAMIIDKLEED
